According to the supplement of paper PMC10126150:
± gives the standard deviation of the averaged measurements.

test system: ATP; assay: switch fluorescence ratio, 500 uM ATP over buffer (Cy3 cluster intensity, sum of 5 cycles each) (fold (ratio)); higher = stronger signal-on switching upon ATP binding; sequences stand for … in TCGTCGGCAGCGTCAGATGTGTATAAGAGACAGTTTTTTTTTTTTTTTTTTTTTTTTT…TC; conditions: aptamer strand: ATP DNA aptamer (quencher-CACCTGGGGGAGTATTGCGGAGGAAGG + anchor), 100 nM annealed; ATP concentration: 500 uM
Summary of the method: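 Switching-strand clusters labelled with Cy3 on a modified Illumina MiSeq flow-cell were annealed to 100 nM quencher-labelled ATP aptamer, imaged in selection buffer, and re-imaged after 15 min with 500 uM ATP at 22 °C. This was done over five cycles with NaOH stripping and re-annealing in between. The fluorescence ratio is summed target-cycle over summed buffer-cycle Cy3 intensity per cluster, averaged per switch-domain sequence, excluding clusters outside 100-1000 RFU.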
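Further: ATP exposure 15 min at 22 °C before imaging.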

| Sequence | switch fluorescence ratio |
| --- | --- |
| CTGACCGGTC | 1.017 ± 0.0087 |
| AATTGGAATA | 0.956 ± 0.038 |
| ATTGACCCCT | 1.08 ± 0.015 |
| CGTTTGTACT | 1.022 ± 0.0013 |
| GTGGTTTTGA | 0.9832 ± 0.0064 |
| TCGGCGGCTG | 0.984 ± 0.01 |
| TTTGTATTCG | 1.004 ± 0.0064 |
| ATTGAAGCCT | 1.15 ± 0.013 |
| GTTTTCGGAT | 0.983 ± 0.013 |
| CTCCGAGGGG | 1.31 ± 0.21 |
| CAATTGCTGG | 0.949 ± 0.035 |
| CGATATGGGC | 1.02 ± 0.014 |
| AATTCGCACG | 1.034 ± 0.006 |
| TGGCGATTGG | 0.985 ± 0.023 |
| TAAGTTAGGT | 1.03 ± 0.1 |
| GGGCTAGTGG | 1.02 ± 0.036 |
| TTGAATTTTA | 0.999 ± 0.033 |
| TGGCTGGAAC | 0.981 ± 0.021 |
| GGGCTTAAGG | 0.97 ± 0.015 |
| GATGAAAAGT | 0.976 ± 0.015 |
| TAAAAGATGG | 1.02 ± 0.019 |
| TTCGTTTGAC | 1.03 ± 0.1 |
| ATTCAGTTAT | 0.997 ± 0.021 |
| TACTATGGGC | 1.03 ± 0.055 |
| GGATCATGTG | 1.004 ± 0.0049 |
| GGGAAAGGTA | 0.986 ± 0.011 |

| Sequence | switch fluorescence ratio |
| --- | --- |
| TGCTGGCTGG | 0.973 ± 0.0016 |
| AAGTAGTCGA | 0.9838 ± 0.0041 |
| AAAGTTTTGT | 0.983 ± 0.023 |
| TCTGAGGGTT | 1.13 ± 0.12 |
| AGCTTGATTT | 1.01 ± 0.039 |
| CGGGAACATT | 1.01 ± 0.017 |
| ATGGTGAGGA | 0.995 ± 0.018 |
| GATGGGAGGT | 1.008 ± 0.0046 |
| TCAAAAGGGG | 1.06 ± 0.092 |
| TCAATGGTTA | 0.978 ± 0.014 |
| TTGATTCG | 1.015 ± 0.0037 |
| TGGTGTCGT | 1.01 ± 0.011 |
| TAAATGAGGA | 1.03 ± 0.047 |
| TAGTTTGATG | 0.986 ± 0.017 |
| CCTTCACCGT | 2.21 ± 0.14 |
| TTTAGGATTG | 0.98 ± 0.034 |
| TTCATGGGGT | 1.04 ± 0.033 |
| GTAGTAGCGT | 0.969 ± 0.022 |
| ATCGGTCTTT | 0.997 ± 0.084 |
| CATAGGAGGC | 1 ± 0.031 |
| TTGGTTGAAT | 0.998 ± 0.011 |
| AGGTAAGTGC | 1.025 ± 0.0017 |
| CAGTGGGGGA | 0.993 ± 0.022 |
| CGACGTGGCG | 0.981 ± 0.064 |
| TTAGGTTGCA | 0.9809 ± 0.0092 |
| ATAGGAGTCT | 1.09 ± 0.016 |

| Sequence | switch fluorescence ratio |
| --- | --- |
| TTGGGGTAGA | 1.05 ± 0.031 |
| CTTTGGGTTG | 1 ± 0.02 |
| TGAGGTACGG | 1.01 ± 0.029 |
| AGCTGAGGAG | 1.0063 ± 7.3e-05 |
| GCGGGTCTGG | 1.03 ± 0.022 |
| TTACGGGTAT | 1.01 ± 0.039 |
| TTTAATGCAA | 1.05 ± 0.033 |
| TAAGAGATAG | 0.976 ± 0.012 |
| CCTGGGTACC | 1.039 ± 0.0072 |
| TTTGTGTATA | 0.976 ± 0.057 |
| CTGGGATAGG | 1 ± 0.02 |
| AACGGGGAGC | 0.983 ± 0.047 |
| TTTAGCCCAG | 1.013 ± 0.0024 |
| AGATGGCCGG | 1 ± 0.065 |
| ACGTTCGTAC | 1.04 ± 0.012 |
| GAGGGTGGGC | 1.03 ± 0.09 |
| GACGGGAGCT | 1.06 ± 0.021 |
| AGCTGTACGG | 1.029 ± 0.0084 |
| GGTCTGGGAT | 0.9939 ± 0.0096 |
| CGTTTGTGTG | 1.01 ± 0.011 |
| TTATTAAAAG | 1.2 ± 0.39 |
| AGGGAATGAT | 1.01 ± 0.015 |
| GAGTCAAGGG | 0.998 ± 0.021 |
| GGATTCTGGG | 0.963 ± 0.042 |
| GAAGATGGGG | 1.01 ± 0.024 |
| GTTGGAGGA | 1.04 ± 0.061 |

| Sequence | switch fluorescence ratio |
| --- | --- |
| GGAGGGGGCG | 0.999 ± 0.061 |
| TTTATAGGGA | 0.987 ± 0.015 |
| TCGTGGGTAT | 0.998 ± 0.025 |
| TAGGGGCGGG | 0.971 ± 0.025 |
| TTAGAGGGA | 1 ± 0.047 |
| TCGTGTACGG | 1.04 ± 0.016 |
| ACCGGCCCGG | 0.9848 ± 0.0085 |
| TTGAAGTTTT | 0.991 ± 0.039 |
| GAGGCGGTGG | 1.009 ± 0.005 |
| TTGGACAGGG | 1 ± 0.02 |
| AAGCTCAATC | 1.05 ± 0.032 |
| GGTTGTGGTT | 0.998 ± 0.031 |
| TGCTAAAGGT | 0.9836 ± 0.0095 |
| TATGGTTATG | 1.008 ± 0.0072 |
| TAGGAATGGG | 0.989 ± 0.034 |
| ACGGCTTTCG | 1.05 ± 0.097 |
| TAAGAGAAGT | 1.018 ± 0.0073 |
| TCCGCAGATT | 4.02 ± 0.047 |
| CTATTAGGGT | 0.999 ± 0.052 |
| GGGAGGGTGA | 0.99 ± 0.025 |
| CAAAGAGGCG | 1.02 ± 0.057 |
| ACTATGGATG | 1.02 ± 0.036 |
| ATATGTTGTT | 0.98 ± 0.025 |
| GAAGCAGCAG | 1.1888 ± 0.00054 |
| GCTAGGTGAC | 1.1 ± 0.037 |
| ACAAAATTTT | 1.03 ± 0.067 |

| Sequence | switch fluorescence ratio |
| --- | --- |
| TACATTTCCA | 1.04 ± 0.04 |
| TGGGGTGAAC | 1 ± 0.025 |
| TATTGGTTCG | 1.03 ± 0.027 |
| GGCCGAGAGG | 0.993 ± 0.053 |
| TTATTTATGT | 1 ± 0.012 |
| GTTGGATTTG | 0.994 ± 0.017 |
| CTCCTGGACT | 1.069 ± 0.0061 |
| TGCAAGGGAG | 1.0133 ± 0.00021 |
| TACTTAGGGA | 1.031 ± 0.0085 |
| TAACTGGTAC | 1.13 ± 0.05 |
| TCAAATTAGA | 0.966 ± 0.026 |
| TGTCTTTTTA | 0.995 ± 0.028 |
| TTAGCAAATA | 1.155 ± 0.0099 |
| GGTACTACGG | 1.05 ± 0.017 |
| CGCTCCGGGG | 1.06 ± 0.07 |
| ACGAAGATGC | 1.24 ± 0.15 |
| TAGGGGGTCT | 1.21 ± 0.47 |
| AAAATGATAG | 1.06 ± 0.072 |
| GCTTTTGTTT | 1.04 ± 0.013 |
| GGGTCCATGA | 1.03 ± 0.05 |
| TTGGTGAACG | 0.989 ± 0.024 |
| GTTCAGAGGG | 1.05 ± 0.1 |
| TGGTGACTGA | 0.981 ± 0.011 |
| AGAGGGTGTG | 0.992 ± 0.034 |
| AGGTGTAATT | 0.987 ± 0.031 |
| TTTCATTGGT | 1 ± 0.027 |

| Sequence | switch fluorescence ratio |
| --- | --- |
| TGTTGTTGTT | 1.01 ± 0.086 |
| GTAATTTTGC | 0.989 ± 0.059 |
| TTTGTCAGAT | 0.98 ± 0.013 |
| ACGATGGAAT | 1.45 ± 0.056 |
| GAGGGAGTTT | 0.987 ± 0.025 |
| GGTTGGGGTT | 0.942 ± 0.039 |
| AAGTAGGCTC | 0.991 ± 0.007 |
| CCGGCGGGGG | 1.4 ± 0.56 |
| GGTTCAAGGA | 0.99 ± 0.063 |
| CACTTGGAAG | 1 ± 0.028 |
| TTCGCGTGTT | 1.003 ± 0.0055 |
| GGGGAATGCA | 1.01 ± 0.034 |
| CGCATTTGGT | 1.07 ± 0.036 |
| TTTGCGATGG | 1.09 ± 0.011 |
| GCGCTGTCCG | 0.9959 ± 0.0087 |
| AGTTAGTTTG | 0.961 ± 0.022 |
| CCTGAGGGAT | 1.86 ± 1.4 |
| TGAAGTGGGG | 0.954 ± 0.016 |
| ATGCGCCCTG | 1 ± 0.015 |
| AAAGTAGCCT | 1.08 ± 0.057 |
| TTGGGTACGT | 1.02 ± 0.026 |
| GGTGGAGAGC | 0.99885 ± 0.00089 |
| TTTGGGTAAA | 1.02 ± 0.032 |
